Experimental data taken from patent US20150359847A1, “METHOD AND COMPOSITION FOR CONFERRING NEUROPROTECTION” (BLOOD SYSTEMS RESEARCH INSTITUTE, priority 2014, published 2015).

Key:
[1] = system: mouse model of controlled cortical impact (CCI); experiment: Context-dependent fear discrimination in CCI TBI mice (Example 1); assay type: in vivo; details: TIMP3 60 μg/kg IV x3; task day 2 (day 16)
From the text: The mouse controlled cortical impact (CCI) injury model was used as previously described. In brief, mice were anesthetized with 5% isoflurane and 1:1 O2:N2 mixture. Animals were mounted on a stereotaxic frame and were secured by ear bars and an incisor bar. Anesthesia was maintained with 2.0% isoflurane and 1:1 O2:N2 mixture. A 5-mm-diameter craniotomy was made midway between bregma and lambda on the right side, with the medial edge of the craniotomy 1 mm lateral to midline. Injury was produced using a magnetic impactor mounted at an angle of 110° from the vertical plane. A single impact at a velocity of 4+/−0.2 m/s was used inflict a moderate to severe injury (1.2-1.3 mm impact depth). After injury, the incision was closed. Sham animals underwent identical surgeries except for impact injury. Core body temperature was monitored using a rectal thermometer and maintained at 36.8° C.-37.2° C. with a heating pad throughout the procedure. For treatments, TIMP3 (60.0 μg/kg) or vehicle control (PBS) administration was performed at 2, 24, and 48 hrs after injury via tail vein injections in a total volume of 125 μl. […]
Contextual discrimination was assessed in a manner similar to prior studies conducted by the inventors and others. […] Comparing the time spent freezing in each chamber during training assessed discrimination of the two contexts.

hippocampal neurons = experiment: Sholl analysis of isolated hippocampal neurons; assay type: cell-based, mouse; details: 1 μg/ml TIMP3, 72 hrs
Description: SH-SY5Y cells were obtained from ATCC (Cat# CRL-2266, Manassas, Va.) and were cultured in DMEM and 10% FBS up to passage 10. For differentiation of SH-SY5Y cells into a neuronal phenotype, cells were first plated in DMEEM+10% FBS for 24 hrs before exchanging media in DMEM+1% FBS 10 μM retinoic acid. Differentiation was performed for 3 days before experimentation. Hippocampal neurons were prepared according to the protocol by Beaudoin et al. (Nature Protocols 2012; 7(9):1741-1754) with minor modifications. In brief, after trypsin digestion of hippocampi isolated from P1 mouse pups single cell suspensions was created by trituration and plated onto Biocoat™ poly-D-lysine coated 12-well plates (Cat#354470, BD Biosciences, San Jose, Calif.). 2 pups were used per well and cell suspensions were incubated for 10 minutes per well for a total of 6 wells. The serial incubation allowed for variation in cell densities applicable to different experiments but also contributed to the reduction in non-neuronal cells. […]
Sholl analysis on processed images of isolated hippocampal neurons was conducted using the Fiji derivation of Image J. (Hypertext Transfer Protocol://Fiji.sc.Fiji). […] After neurites had been traced the images were rendered as an analyzed skeleton and Sholl analysis was run on the image from the Analyze menu option.

MMP-2 = target: T1, MMP-2 (Homo sapiens, UniProt P08253); experiment: SensoLyte Fluorimetric MMP-2 Activity Assay; assay type: biochemical; details: dose response; 1 μg/ml TIMP3
T1 sequence (P08253 110-660): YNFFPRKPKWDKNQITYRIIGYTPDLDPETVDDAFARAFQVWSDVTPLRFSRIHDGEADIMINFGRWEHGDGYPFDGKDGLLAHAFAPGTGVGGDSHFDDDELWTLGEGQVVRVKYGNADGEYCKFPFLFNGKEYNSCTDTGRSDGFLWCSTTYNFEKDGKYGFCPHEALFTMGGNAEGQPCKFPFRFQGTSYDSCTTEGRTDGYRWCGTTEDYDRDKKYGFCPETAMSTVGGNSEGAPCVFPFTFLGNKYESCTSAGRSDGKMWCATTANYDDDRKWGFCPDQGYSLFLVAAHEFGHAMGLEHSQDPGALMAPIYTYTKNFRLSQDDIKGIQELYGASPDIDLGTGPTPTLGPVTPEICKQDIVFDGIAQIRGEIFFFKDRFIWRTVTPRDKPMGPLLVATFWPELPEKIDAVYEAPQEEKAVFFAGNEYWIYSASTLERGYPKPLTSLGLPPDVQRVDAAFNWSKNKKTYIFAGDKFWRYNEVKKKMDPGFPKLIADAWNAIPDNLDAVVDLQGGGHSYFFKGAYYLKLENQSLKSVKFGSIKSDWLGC
From the text: SensoLyte Fluorimetric MMP-2 Activity Assay Kit™ (Cat#71151) and SensoLyte Fluorimetric MMP-9 Activity Assay Kit™ (Cat#71155) were purchased from AnaSpec (Fremont, Calif.) and performed per manufacturer's instructions.

B1: TIMP3: Recombinant tissue inhibitor of matrix metalloproteinase-3, a soluble protein released by MSCs, obtained from Amgen Inc. (protein)
chain: CTCSPSHPQDAFCNSDIVIRAKVVGKKLVKEGPFGTLVYTIKQMKMYRGFTKMPHVQYIHTEASESLCGLKLEVNKYQYLLTGRVYDGKMYTGLCNFVERWDQLTLSQRKGLNYRYHLGCNCKIKSCYYLPCFVTSKNECLWTDMLSNFGYPGYQSKHYACIRQKGGYCSWYRGWAPPDKSIINATDP
Which “discrimination between shock and safe contexts” value [1] does the source give for B1 here?
Its value is “discriminated between the environments following training”.

And the “neurite complexity (Sholl analysis)” value (hippocampal neurons)?
Its value is “significantly increased neurite complexity”.

And the “MMP-2 inhibition (Sensolyte FRET assay)” value (MMP-2)?
Its value is “can fully inhibit”.
